Data taken from PMC11164701.

Molecular target: CpxA^QTY (water-soluble QTY-code variant of the sensor histidine kinase CpxA), his-tagged (E. coli) (UniProt P0AE82)

B1: periplasmic protein CpxP (natural protein)
chain: AEVGSGDNWHPGEELTQRSTQSHMFDGISLTEHQRQQMRDLMQQARHEQPPVNVSELETMHRLVTAENFDENAVRAQAEKMANEQIARQVEMAKVRNQMYRLLTPEQQAVLNEKHQQRMEQLRDVTQWQKSSSLKLLSSSNSRSQ
inhibition of the autokinase activity of CpxA^QTY (1 μM, 1 mM ATP, RT, 2 min, anti-pHis western blot) by different concentrations of CpxP; CpxP excess needed for inhibition by approximately half (fold (CpxP over kinase)): 10
